Source: patent publication US20260201327A1

Molecular target: CD40 in the antibody expressing cells (rabbit plasmablasts from peripheral blood) (rabbit)
Experiment: cell-based or functional assay

Substance | B cell growth after 7 days, batch sort in BM1, Fc-CD40-L against LZ-CD40-L (18 kDa) (% higher than LZ-CD40-L (18 kDa)) | B cell growth after 7 days, batch sort in BM1, cytokines + CD40-L construct 7.5 ug/ml, against the reference EL4-B5 + TSN (% more than reference) | cell growth after 7 days, batch sort in BM1, cytokines + Fc-CD40-L 7.5 ug/ml (#4) against the reference TSN + EL4-B5 (% higher than reference) | cell growth after 7 days, batch sort in BM2, 2.5 ug/ml Fc-CD40-L (#12) against 7.5 ug/ml (#10) [times lower] | cell growth after 7 days, batch sort in BM2, 5.0 ug/ml Fc-CD40-L (#11) against 7.5 ug/ml (#10) [times lower] | cell growth after 7 days, batch sort in BM2, cytokines + 2.5 ug/ml Fc-CD40-L (#12) against the reference #9 (% lower than reference) | cell growth after 7 days, batch sort in BM2, cytokines + 5.0 ug/ml Fc-CD40-L (#11) against the reference #9 (% lower than reference) | cell growth after 7 days, batch sort in BM2, cytokines + 7.5 ug/ml Fc-CD40-L (#10) against the reference TSN + EL4-B5 (#9) (% higher than reference) | B cell growth after 7 days, batch sort in BM1, cytokines + CD40-L construct 7.5 ug/ml, against the reference EL4-B5 + TSN (% of reference) | DoE parameter estimate for plasmablast proliferation (cell number after 7 days, 50 cells per well, feeder cell and TSN replacement)
Fc-CD40-L (human IgG1-Fc fragment linked to the 18 kDa rabbit CD40-L fragment) (Fc fusion) | 32 | 43 | 23 | 1.4 | 1.1 | 27 | 5 | 6 | – | –
LZ-CD40-L EctoD (ligand) | – | – | – | – | – | – | – | – | 68 | 139
